Drawing on paper PMC8500459, “Novel Homologs of Isopentenyl Phosphate Kinase Reveal Class‐Wide Substrate Flexibility” (Chemcatchem, 2021), this text covers Km, kcat and kcat/Km for 4 proteins.

A word on the Km: it is the substrate concentration at which the rate is half of its maximum. Usually kcat stands for the number of substrate molecules converted per active site and unit of time at saturation. As a reminder, the kcat/Km is the turnover number divided by the Michaelis constant.

Substrate in data set [1]: O=P(O)(O)OCc1ccccc1
The data set is described as follows: PK-LDH coupled assay, NADH A340. Conditions: ATP 1 mM (2 mM in methods), 25 mM Tris pH 7.8, 5 mM MgCl2, 37 °C. The format is biochemical, Thermococcus paralvinellae.

Substrate in data set [2]: C=C(C)CCOP(=O)(O)O
The data set is described as follows: PK-LDH coupled assay, NADH A340. The format is biochemical, Thermococcus paralvinellae. Conditions: ATP 1 mM (2 mM in methods), 25 mM Tris pH 7.8, 5 mM MgCl2, 37 °C.

Substrate in data set [3]: Nc1ncnc2c1ncn2[C@@H]1O[C@H](COP(=O)(O)OP(=O)(O)OP(=O)(O)O)[C@@H](O)[C@H]1O
The data set is described as follows: PK-LDH coupled assay, NADH A340. Conditions: isopentenyl phosphate (1) 1 mM, 25 mM Tris pH 7.8, 5 mM MgCl2, 37 °C. The format is biochemical, Thermococcus paralvinellae.

Substrate in the data set “purified protein”: CC(C)=CCOP(=O)(O)O
Nature of the data set: purified protein. As to conditions: ATP 1 mM (2 mM in methods), 25 mM Tris pH 7.8, 5 mM MgCl2, 37 °C.

Substrate in data set [4]: O=P(O)(O)OCc1ccccc1
The data set is described as follows: PK-LDH coupled assay, NADH A340. The format is biochemical, Methanohalophilus mahii. As to conditions: ATP 1 mM (2 mM in methods), 25 mM Tris pH 7.8, 5 mM MgCl2, 37 °C.

Substrate in data set [5]: C=C(C)CCOP(=O)(O)O
The data set is described as follows: PK-LDH coupled assay, NADH A340. The format is biochemical, Methanohalophilus mahii. As to conditions: ATP 1 mM (2 mM in methods), 25 mM Tris pH 7.8, 5 mM MgCl2, 37 °C.

Substrate in data set [6]: Nc1ncnc2c1ncn2[C@@H]1O[C@H](COP(=O)(O)OP(=O)(O)OP(=O)(O)O)[C@@H](O)[C@H]1O
The data set is described as follows: PK-LDH coupled assay, NADH A340. The format is biochemical, Methanohalophilus mahii. As to conditions: isopentenyl phosphate (1) 1 mM, 25 mM Tris pH 7.8, 5 mM MgCl2, 37 °C.

Substrate in data set [7]: O=P(O)(O)OCc1ccccc1
Nature of the data set: PK-LDH coupled assay, NADH A340. The format is biochemical, Candidatus Nitrososphaera gargensis. Conditions: ATP 1 mM (2 mM in methods), 25 mM Tris pH 7.8, 5 mM MgCl2, 37 °C. The source says:
(§1) PK-LDH coupled assay, NADH A340 on CNG

Substrate in data set [8]: C=C(C)CCOP(=O)(O)O
The data set is described as follows: PK-LDH coupled assay, NADH A340. The format is biochemical, Candidatus Nitrososphaera gargensis. As to conditions: ATP 1 mM (2 mM in methods), 25 mM Tris pH 7.8, 5 mM MgCl2, 37 °C.
From the text: as §1

Substrate in data set [9]: Nc1ncnc2c1ncn2[C@@H]1O[C@H](COP(=O)(O)OP(=O)(O)OP(=O)(O)O)[C@@H](O)[C@H]1O
Nature of the data set: PK-LDH coupled assay, NADH A340. The format is biochemical, Candidatus Nitrososphaera gargensis. As to conditions: isopentenyl phosphate (1) 1 mM, 25 mM Tris pH 7.8, 5 mM MgCl2, 37 °C.
From the text: as §1

Substrate in data set [10]: O=P(O)(O)OCc1ccccc1
Nature of the data set: PK-LDH coupled assay, NADH A340. The format is biochemical, Methanosarcina barkeri. As to conditions: ATP 1 mM (2 mM in methods), 25 mM Tris pH 7.8, 5 mM MgCl2, 37 °C.

Substrate in data set [11]: C=C(C)CCOP(=O)(O)O
The data set is described as follows: PK-LDH coupled assay, NADH A340. As to conditions: ATP 1 mM (2 mM in methods), 25 mM Tris pH 7.8, 5 mM MgCl2, 37 °C. The format is biochemical, Methanosarcina barkeri.

Substrate in data set [12]: Nc1ncnc2c1ncn2[C@@H]1O[C@H](COP(=O)(O)OP(=O)(O)OP(=O)(O)O)[C@@H](O)[C@H]1O
The data set is described as follows: PK-LDH coupled assay, NADH A340. The format is biochemical, Methanosarcina barkeri. Conditions: isopentenyl phosphate (1) 1 mM, 25 mM Tris pH 7.8, 5 mM MgCl2, 37 °C.

B1: TCP (Thermococcus paralvinellae) (protein)
chain: MIIIKLGGSVISDKEKEYSFHRHIVEQIAEEIAQFYPDESFILVHGGGSFGHPNAREYKITEGLVGDVDRKRIGFSKTHQAMLKLNDLIIQTFLEKGLPAYSVSSSSIFLLENKEVVYGELEILRKLLELKFIPVLFGDTAIALDKGIDILSGDQIVSYLAKMLKPSKVIFLMDVDGIYDRNPKERDAKLIEELNVEEIRHLLESSESAGIDVTGGIGNKLREALKIAKHSEVYFINGKVKENLGKAIRGEKVGTRLRKLEHPKIS
notes: N-His6 fusion, pET28a NdeI/EcoRI, codon-optimised synthetic gene, E. coli Rosetta2, Ni-NTA
On to B1, for which the Michaelis-Menten constant (Km) came out at 69 ± 10 µM in data set [1], 22 ± 6 µM in data set [2], 15 ± 3 µM in data set [3] and 70 ± 10 µM in the data set “purified protein”. Further, the kcat in data set [1] stood at 0.039 ± 0.002 s⁻¹; in data set [2] it was 0.62 ± 0.03 s⁻¹; in [3] it was 0.59 ± 0.03 s⁻¹; in the data set “purified protein”, 24 s⁻¹. In addition, the specificity constant (kcat/Km) in data set [1] came to 560 M⁻¹ s⁻¹; in data set [2], 28000 M⁻¹ s⁻¹; in data set [3], 39000 M⁻¹ s⁻¹; in “purified protein” it was 360000 M⁻¹ s⁻¹.

B2: MHM (Methanohalophilus mahii DSM 5219) (protein)
chain: MNEKNSDITILKIGGSVITDKSSNEGIVREKAIIRIAREISFFEGPLIIVHGAGSFGHPQAKRYSLAYKFSAEGSGVTHRSVASLNELFVNALAQRNVNAVGIHPMGCLVAKEGRISKSFLLAIQMMLEKGITPVLHGDVVMDTVKGSSVISGDQIVPYLASKLNAYRIGVGSAEDGVLDEHGHPIPLITPDNFEIASMHIGGSENTDVTGGMLGKVKEMLDMSRQTKVPSYIFNANAGGNVMSFLRGEMIGTAIKDKA
notes: as for B1
For the protein B2, the Michaelis-Menten constant (Km) in the data set “purified protein” was 36 ± 4 µM; in [4] it was 70 ± 10 µM; in data set [5], 50 ± 10 µM; in [6] it was 100 ± 30 µM. Further, the kcat in the data set “purified protein” was 4.1 s⁻¹; in [4], 0.139 ± 0.008 s⁻¹; in data set [5], 5.2 ± 0.4 s⁻¹; in data set [6], 6.3 ± 0.3 s⁻¹. For the same protein, the catalytic efficiency (kcat/Km) in “purified protein” was 120000 M⁻¹ s⁻¹; in data set [4], 1900 M⁻¹ s⁻¹; in [5] it was 100000 M⁻¹ s⁻¹; in data set [6], 63000 M⁻¹ s⁻¹.

B3: CNG (Candidatus Nitrososphaera gargensis Ga9.2) (protein)
chain: MQKLALIKLGGSVVTFKDKPLAANTGAIDGISRVLAQLSTPAIIVHGGGSFGHYWSVKYDMHTKPAGYDPHGVSVVHESMIALNQIIINSMIRAGLNPYGMPPSVFAAGHKPVAAKIKQIYTMAKSEVMPVTFGDVVHMEGNKYSILSGDALMTMLAKVLRPSRVVFATNVDGIYKDMASRELMREIRVTTGRKKRSIEFSKASGADVTGGMQRKVAEAFKIASRGMDVLMVNGLMPERIAEAVVEGTRLQVGTVVKGSRR
notes: as for B1
Consider B3, for which the Km in the data set “purified protein” is 390 ± 90 µM; in data set [7] it was 1200 ± 200 µM; in [8], 61 ± 9 µM; in data set [9] it was 21 ± 5 µM. In addition, the turnover number (kcat) in “purified protein” worked out at 0.87 s⁻¹; in data set [7] it was 0.83 ± 0.07 s⁻¹; in data set [8], 1.12 ± 0.05 s⁻¹; in [9], 0.81 ± 0.06 s⁻¹. For the same protein, the kcat/Km in “purified protein” worked out at 2200 M⁻¹ s⁻¹; in data set [7], 700 M⁻¹ s⁻¹; in data set [8], 18000 M⁻¹ s⁻¹; in data set [9], 39000 M⁻¹ s⁻¹.

B4: MSB (Methanosarcina barkeri 3) (protein)
chain: MNVSTEPVILKLGGSVITDKAADQGVVREDSLRRIAKEVSEYRGKMIIVHGAGSFGHTYAKKYQLGKVFDPEGAIVTHESVKKLASRVVDTLNEYGVRAIAVHPMCCTICRNGRIESMYLDNIKLMLENGLVPVLHGDVVMDLELRACVLSGDQIVPYLAKELKITRLGLGSAEDGVLDNDGKTVPEITPKTFEDFKHYIRGSGSTDVTGGMLGKVQELLELSKTSCITSYIFNAGKDDNIYRFLNGEPMGTTISPDKRV
notes: as for B1
For the protein B4, the Km came to 45 ± 8 µM in data set [10], 27 ± 5 µM in data set [11], 90 ± 10 µM in [12] and 32 ± 7 µM in the data set “purified protein”. Also, the kcat was found to be 1.23 ± 0.07 s⁻¹ in data set [10], 10.3 ± 0.4 s⁻¹ in data set [11], 9.1 ± 0.4 s⁻¹ in [12] and 10.1 s⁻¹ in “purified protein”. For the same protein, the kcat/Km came out at 27000 M⁻¹ s⁻¹ in [10], 380000 M⁻¹ s⁻¹ in [11], 100000 M⁻¹ s⁻¹ in data set [12] and 310000 M⁻¹ s⁻¹ in “purified protein”.
